Molecular target: recombinant His-tagged cynomolgus PD-1 (Acro Biosystems) (cynomolgus) (UniProt B0LAJ3)
Assay: SPR Carterra LSA, antibody coupled

Chain of recombinant His-tagged cynomolgus PD-1 (Acro Biosystems) (cynomolgus) (B0LAJ3 entry or part of it limits assumed): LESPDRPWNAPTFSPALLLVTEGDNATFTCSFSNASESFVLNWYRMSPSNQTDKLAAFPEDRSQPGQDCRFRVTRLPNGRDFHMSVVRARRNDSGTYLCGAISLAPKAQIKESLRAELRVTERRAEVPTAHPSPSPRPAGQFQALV

| Kd [nM] | Substance |
| --- | --- |
| 0.575 | KEYTRUDA® (pembrolizumab) (antibody) |
| 6.4 | OPDIVO® (nivolumab) (antibody) |
